Laboratory results as given in PMC8944867 (Proceedings of the National Academy of Sciences of the …, 2022).

Legend:
[1] = target: T1, IpaH1.4 LRR domain (S. flexneri, UniProt A0A0H2USG1 38-283); assay: ITC
T1 sequence: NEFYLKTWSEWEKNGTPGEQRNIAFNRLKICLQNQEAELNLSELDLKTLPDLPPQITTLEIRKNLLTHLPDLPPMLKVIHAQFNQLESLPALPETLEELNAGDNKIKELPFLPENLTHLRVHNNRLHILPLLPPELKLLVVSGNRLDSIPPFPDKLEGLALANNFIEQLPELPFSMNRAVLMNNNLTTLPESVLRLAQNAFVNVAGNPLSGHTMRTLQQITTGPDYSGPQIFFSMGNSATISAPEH

[2] = target: T2, HOIP UBA domain (human, UniProt Q96EP0 480-636); assay: ITC
T2 sequence: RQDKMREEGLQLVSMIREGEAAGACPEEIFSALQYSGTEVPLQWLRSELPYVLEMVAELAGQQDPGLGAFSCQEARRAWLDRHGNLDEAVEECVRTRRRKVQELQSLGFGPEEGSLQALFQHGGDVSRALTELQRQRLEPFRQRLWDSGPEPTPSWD

B1: HOIL-1L UBL domain (domain or fragment)
chain: QDIRLWVSVEDAQMHTVTIWLTVRPDMTVASLKDMVFLDYGFPPVLQQWVIGQRLARDQETLHSHGVRQNGDSAYLYLLSARN
Kd [1]: 10.7 µM
Kd [2]: 3.9 ± 0.4 µM
